Values of other authors, collected in publication PMC7072806.
Read-outs that look alike come from different tables or passages of the source.

What was measured:
[1] = target: CCR5 (Homo sapiens) (UniProt P51681)
[2] = target: CCR5 (Homo sapiens) (UniProt P51681); test: SPR

Chain of UniProt P51681 (P51681 whole entry): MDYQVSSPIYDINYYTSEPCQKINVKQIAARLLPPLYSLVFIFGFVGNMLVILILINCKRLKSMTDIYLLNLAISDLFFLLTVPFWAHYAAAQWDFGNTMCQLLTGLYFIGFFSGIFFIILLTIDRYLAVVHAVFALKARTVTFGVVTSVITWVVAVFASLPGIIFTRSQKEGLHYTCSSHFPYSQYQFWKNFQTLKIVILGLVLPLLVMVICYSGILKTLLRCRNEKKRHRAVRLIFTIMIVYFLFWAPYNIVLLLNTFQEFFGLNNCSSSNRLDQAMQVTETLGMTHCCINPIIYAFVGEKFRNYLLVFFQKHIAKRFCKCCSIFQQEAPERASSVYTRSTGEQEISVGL

Kd [1]	Kd [2]	Substance
0.4 nM		RANTES (from UniProt P13501)
	5000 nM	eNAMPT (from UniProt P43490)
